PMC3352945 (The Journal of Cell Biology, 2012)

Columns and labels:
cpTatC [1] = biological target: T1, cpTatC (pea (endogenous in pea thylakoids)); test: radioligand binding
cpTatC [2] = biological target: T1, cpTatC; test: co-IP

Kd (cpTatC [1]): 1.07 nM
stoichiometry N (cpTatC [1]): 1.27 tOE17 per cpTatC
stoichiometry N (cpTatC [2]): 0.79 tOE17 per cpTatC
B1: tOE17 V-20F precursor protein (natural protein)
chain: MASAEGDAVAQAGRRAFIGLVATGIVGGALSQAARAETVKTIKIGAPPPPSGGLPGTLNSDQARDFDLPLKERFYLQPLPPAEAAARVKTSAQDIINLKPLIDKKAWPYVQNDLRLRASYLRYDLKTVIASKPKEEKKSLKELTGKLFSTIDDLDHAAKIKSTPEAEKYFAATKDALGDVLAKLG
modifications: [3H]-Leu radiolabel (unlabeled tOE17 used as the chase in the dissociation test)
